Patent EP0811683B1, “Antibodies to human gastrin-releasing peptide precursor and use thereof” (Yamaguchi, Ken, priority 1996, dated 1997)
Where no end group is shown, it is not given here.

Test: Comparison of stability of GRPs in the blood (serum, plasma, aprotinin-containing plasma; Fig. 3)
Type: in vitro ADME
Conditions: 0, 1 and 6 hours, result in words
Experimental: Stabilities in the blood of GRP(1-27) and GRP(31-98) were compared using antibodies to the above-prepared GRP(31-98) and antibodies to the conventional GRP(1-27).
A small amount of GRP(1-27) or GRP(31-98) was added to a serum, plasma, or aprotinin - containing plasma, and the residual concentration of GRP(1-27) and GRP(31-98) was determined at 0, 1, and 6 hours from the addition, and the percentages of the residual concentration were obtained taking the concentration at the starting point (0 hour) as 100%.

Substance: GRP(1-27): mature human gastrin-releasing peptide, active peptide of 27 amino acids (VPLPAGGGTVLTKMYPRGNHWAVGHLM; ends and bridges not checked; UniProt P07492 24-50, looked up)
- stability in serum or plasma (residual concentration): degraded and disappeared
